Reference: patent publication US9481870B2, “Nucleic acid encoding a polypeptide having aminotransferase activity, vectors and host cells comprising the nucleic acid” (KANEKA CORPORATION, priority 2010, dated 2016)

Experiments:
[1] = Thermal stability (residual activity after 30 minutes heating); format: physicochemical; conditions: for Residual activity: pH7.5, before heat treatment = 100
Protocol: The thermal stability of the polypeptide is determined as follows.
The purified TPM was reacted for 30 minutes in 0.1 M potassium phosphate buffer (pH7.5) containing 0.5 mM pyridoxal phosphate at 30° C., 40° C., 50° C., 60° C., 70° C., and 80° C., and then activity assay was performed in a similar manner. As a result, 90% or more of the activity before heat treatment remained after treatment at 30° C. to 60° C.

[2] = Activity of purified TPM for 1-benzyl-3-pyrrolidinone and optical purity of product; format: biochemical; conditions: 2 hours
Protocol: The above properties can be determined by the following method. Specifically, a purified polypeptide is added to a substrate solution having the following composition so that it has a final concentration ranging from 0.1 mg/mL to 1 mg/mL for reaction at 30° C. Furthermore, the reaction is continued until 0.6 mM or more 1-benzyl-3-aminopyrrolidine (as determined by the following quantitative analysis) is generated. After the completion of the reaction, the optical purity of the 1-benzyl-3-aminopyrrolidine generated in the reaction solution is analyzed by HPLC under the following conditions. […]
[High Performance Liquid Chromatography (HPLC) Analysis Conditions] • <Quantitative A> • Column: Finepak SIL C18-T (JASCO Corporation) • Eluent: distilled water 1260 mL/acetonitrile 740 mL/KH2 PO4 10 g/SDS 2.88 g (pH3.6) • Flow rate: 1 mL/minute • Detection: 254 nm • Column temperature: 40° C. […]
A reaction solution was treated with an appropriate amount of sodium carbonate so that it became basic, derivatized with dinitrobenzoyl chloride, and then analyzed under the following conditions. • Column: Chiral pak IA (Daicel Corporation) • Eluent: hexane/ethanol/diethylamine/acetonitrile=800/200/1/5 (volume ratio) • Flow rate: 0.8 mL/minute • Detection: 254 nm

[3] = Optimum temperature of transamination activity; format: biochemical
Protocol: (§1) The transamination activity of purified TPM was examined under the following activity assay conditions. Specifically, purified TPM was added to a substrate solution with the composition given below to a total amount of 1 mL. After 5 minutes of reaction at 30° C., 0.05 mL of 6N hydrochloric acid was added to stop the reaction. HPLC analysis was conducted under the following conditions.
Transamination activity was determined at 10° C., 20° C., 30° C., 40° C., 50° C., 60° C., and 70° C. under the same conditions above.

[4] = Transamination activity assay (activity assay A), activity for (S)-1-phenethylamine; format: biochemical; conditions: (S)-1-phenethylamine 25 mM, sodium pyruvate 25 mM, pH 8.0, 30° C., 5 minutes
Protocol: The above transamination activity can be determined by the following method. Specifically, first, a purified polypeptide is added to a substrate solution having the following composition so that the total volume is 1 mL. After 5 minutes of reaction at 30° C., 0.05 mL of 6N hydrochloric acid is added to stop the reaction. The reaction solution is then analyzed by HPLC under the following conditions and then the quantity of the thus generated acetophenone is determined (hereinafter, referred to as “activity assay A”).
as §1
[High Performance Liquid Chromatography (HPLC) Analysis Conditions] • Column: Wakosil-II 5C18 RS (Wako Pure Chemical Industries, Ltd.) • Eluent: 10 mM potassium phosphate buffer (pH5.3): acetonitrile=3:2 • Flow rate: 1 mL/minute • Detection: 241 nm • (1) Activity for (S)-1-phenethylamine: […]

[5] = Resistance to water-soluble organic solvent (residual activity); format: physicochemical; conditions: 2 hours, 30° C.
Protocol: Resistance to a water-soluble organic solvent can be determined by the following method. Specifically, first, 800 uL of each water-soluble organic solvent is added to 200 uL of a 0.1 M aqueous potassium phosphate solution (pH7.5) supplemented with 0.5 mM PLP containing a purified polypeptide, so that the solvent is brought into contact with the solution at 30° C. for 2 hours. Subsequently, the resultant is diluted with a 0.1 M aqueous potassium phosphate solution supplemented with 0.5 mM PLP. Activity in the dilute solution is compared with the same in a purified polypeptide solution before addition of the solvent using the above activity assay A.
• (5) Resistance to water-soluble organic solvent: 800 μL of 1-propanol, 2-propanol, or acetone was added to 200 μL of 0.1 M potassium phosphate buffer (pH7.5) containing 0.5 mM pyridoxal phosphate to which purified TPM had been added, followed by 2 hours of treatment at 30° C. After treatment, 0.1 M potassium phosphate buffer (pH7.5) containing 0.5 mM pyridoxal phosphate was diluted 20-fold, and then the activity of the diluted solution was determined under conditions similar to those above.
The resistance of commercially available Vibrio fluvialis-derived ω-Transaminase VF (Julich-Chemicals) to a water-soluble organic solvent was examined by a method similar to that for resistance to a water-soluble organic solvent in Example 9 (5).

B1: TPM: purified aminotransferase polypeptide from Pseudomonas sp. MV37, about 50,000 molecular weight, amino acid sequence SEQ ID NO: 1 (protein, listed as Pseudomonas sp.)
chain: MNHLEKMLELDRNHLIHPHLPKSEFSRTIFARGKGCKLWDTEGREYLDATGGLWLAQIGHGREEIAEVAARQMKQLEYFTCFWDFSNERAIELAEKLARLAPGDLEMSFFTSGGSEGDDAAIKTARYYHSQRGEPKRTWILSRNNAYHGLAYGGGTATGFPELRDGMGPGLPHVAYLTQPNAYRHYYFDGQNPTDFCVSELEKMIASIGAENIAAMIAEPIMGVGGMVPPPVDYWPRMSQVLKKNGILLIFDEVVSAFGRSGHWFAAEKYGVIPDIMVTAKGISSGYIPLGAVIMSRDVADTVREGHGYPLGYTYSGHPVACAVALENLRILEDEDLINRSNHMGTYIAEQLTALRDNPCVGEVRQAGMGIGIELVTDKESRQPLPDAALVIPDIIREETGVIVRISNATNLCMSPPLTMSREEADRAVEAVCSVLSRVKPDGKV
[1]; after treatment at 30° C. to 60° C.
  activity remaining relative to before heat treatment: ≥ 90%
[1]; treatment 30° C.
  Residual activity: 108
[1]; treatment 40° C.
  Residual activity: 115
[1]; treatment 50° C.
  Residual activity: 120
[1]; treatment 60° C.
  Residual activity: 100
[1]; treatment 70° C.
  Residual activity: 12
[2]; (S)-1-phenethylamine 85.6 mM, 1-benzyl-3-pyrrolidinone 57.1 mM, pH 7.0, 30° C.
  conversion rate: 90%
[2]; generated (S)-1-benzyl-3-aminopyrrolidine, 30° C.
  optical purity: 98.0 % e.e.
[3]; 10° C. to 70° C. tested
  optimum temperature: 60 °C
[3]; Reaction temperature 10° C., activity at 60° C. = 100
  Relative activity: 8
[3]; Reaction temperature 20° C., activity at 60° C. = 100
  Relative activity: 16
[3]; Reaction temperature 30° C., activity at 60° C. = 100
  Relative activity: 33
[3]; Reaction temperature 40° C., activity at 60° C. = 100
  Relative activity: 49
[3]; Reaction temperature 50° C., activity at 60° C. = 100
  Relative activity: 77
[3]; Reaction temperature 60° C., designated as 100
  Relative activity: 100
[3]; Reaction temperature 70° C., activity at 60° C. = 100
  Relative activity: 68
[4]
  Transamination activity for (S)-1-phenethylamine: 11.8 U/mg
[5]; 1-Propanol 80% v/v
  Residual activity rate (%): 97%
[5]; 2-Propanol 80% v/v
  Residual activity rate (%): 100%
[5]; 80% v/v solvent
  stability against 1-propanol, 2-propanol, and acetone: extremely stable
[5]; Acetone 80% v/v
  Residual activity rate (%): 99%
